What was measured:
[1] = tested on: transcriptional activity of NFκB; experiment: NFκB-dependent luciferase assay in transfected COS-7 cells, TNFα-induced; format: cell-based
Procedure: COS-7 cells were plated into a 6-well plate (Falcon, catalog number: 35-3046) at 3.5 to 3.8×10^5 cells per well and cultured in a DMEM supplemented with 10% 56° C.-inactivated FBS (fetal bovine serum; HyClone, catalog number: SH30070.03) under the conditions of 5% CO2 and 37° C. After 18 hours, the medium was replaced with a DMEM containing charcoal-dextran treated (C/D treatment) FBS (C/D-FBS, HyClone, catalog number: SH30068.03). Each of the plasmids constructed in Example 2 was mixed as shown in Table 1 and each sample was prepared to be 4.12 μg and each was mixed with TransFast (product name) reagent (12.3 μl) and the mixture was incubated for 10 to 15 minutes. After the medium in each well was replaced, each plasmid DNA was added to the respective wells according to the amount shown in Table 1 and incubation was carried out for 1 hour, thus each DNA was transfected into COS-7 cells. The transfection efficiency was 34%. To the cells into which DNA was transfected as described above, after 24 hours, an inflammatory cytokine (TNFα, Sigma) at a final concentration of 1 ng/ml and a steroid agent (triamcinolone acetonide: TA, Sigma) at a final concentration of 120 nM were added. Further, after an additional 24 hours, luciferase activities in the cells were assayed using Dual Luciferase Assay System (Promega) by a luminometer (Turner BioSystems TD-20/20, Promega). The results are shown in FIG. 1, In FIG. 1, the luciferase activities indicating the transcriptional activity of NFκB is indicated on the vertical axis. The closed circles show the case where only TNFα was added, the closed triangles show the case where both TNFα and TA were added, the open triangles show the case where only TA was added and the open circles show the case where neither of TNFα nor TA was added, respectively.

[2] = tested on: transcriptional activity of NFκB; experiment: NFκB luciferase assay in HeLa cells with added His-tag-TAT-MTI-II protein; format: cell-based; settings: protein 30-300 μg per well added 6 hours before TNFα 1 ng/ml
Procedure: HeLa cells were plated into a 6-well plate at 2.0×10^5 cells per well and cultured in a DMEM (HyClone) supplemented with 10% FBS (fetal bovine serum) for 18 hours. Thereafter, the medium was replaced with a medium containing charcoal-dextran treated (C/D treatment) FBS (C/D-FBS). Further, after an additional 24 hours, each plasmid DNA blended in accordance with the amount shown in the following Table 2 was added to the respective wells, and these HeLa cells were transfected with NFκB-Luc gene.
At 24 hours after the transfection, to the HeLa cells in each well, the His-tag-TAT-MTI-II fusion protein prepared in Example 7 was added according to the amount shown in Table 3, and 6 hours thereafter, an inflammatory cytokine (TNFα, Sigma) was further added thereto in an amount to give a concentration of 1 ng/ml. After 24 hours, in the same manner as in Example 4, luciferase activities in the cells were assayed using Dual Luciferase Assay System (Promega).

[3] = OVA-sensitized rabbit knee joint inflammation model; format: in vivo, New Zealand White rabbits; settings: rabbits, 0.4 mg/ml in PBS into the right knee joint, 10 administrations in 14 days
Procedure: For primary sensitization, ovalbumin (OVA)+Freund's complete adjuvant (FCA) was intradermally injected once in the dorsal area of three New Zealand White rabbits. After 2 weeks, for secondary sensitization, OVA+FCA was intradermally administered once in the dorsal area. Further, for challenge administration, at 5 days after the secondary sensitization, OVA was administered once into the right knee joint. A His-tag-TAT-MTI-II solution (at 0.4 mg/ml in PBS solution) was administered into the right knee joint every other day starting from one day before the challenge administration of OVA. Incidentally, during 5 days from the next day of the challenge administration of OVA, the His-tag-TAT-MTI-II solution was administered once daily. The administration period was 14 days (number of administration: 10 times in total), and in a control group, PBS was administered into the right knee joint. An anti-inflammatory action was examined based on the blood sedimentation rate measurement and the pathological specimens of both knee joints.

[4] = tested on: transcriptional activity of NFκB; experiment: NFκB luciferase assay in the presence of coactivator p300; format: cell-based
Procedure: Then, in order to confirm the action site of MTI-II, the effect of MTI-II was investigated when a coactivator p300, which acts on the transcriptional activity of NFκB, was expressed.
A coactivator p300 expression plasmid (pCMVβ-p300) was purchased from Upstate. DNA transfection was carried out in the same manner as in Example 3 except that the amount of DNA was each 2.0 μg and the amount of pTri-NC or pTri-MTI was 1.0 μg. The NFκB transcriptional activity assay was carried out in the same manner as in Example 4.

[5] = MTI-II peptide administration experiment (behaviour and autopsy observation); format: in vivo; settings: 10 mg/kg intraperitoneal, ICR mice
Procedure: MTI-II of SEQ ID NO: 1 (Gene Bank Accession No. M24398) was purified in accordance with the purification method described in the document (Eur. J. Biochem., (2000), 267, 155-162). It was dissolved in physiological saline at a concentration of 1.0 mg/ml and intraperitoneally administered to 5 male (an average body weight of 28.4 g) and 5 female (an average body weight of 25.0 g) ICR mice at 5 weeks of age at 10 mg/kg of body weight. As a control, physiological saline was administered to 2 male and 2 female ICR mice of the same age. […] At 24 hours after the administration, they were sacrificed and autopsy was carried out and the swelling of the liver, kidney, spleen, small intestine, large intestine and thymus and the swelling of the blood vessels in the abdominal cavity were observed by the naked eye. As a result, behavioral anomaly and the swelling of the liver, kidney, spleen, small intestine, large intestine, thymus and blood vessels were not observed in all specimens.

TNFα [reference compound]
luciferase activity (transcriptional activity of NFκB) versus no TNFα ([1]; TNFα 1 ng/ml only, MTI-II 0 μg): about 10 times

B1: His-tag-TAT-MTI-II: His-tag-TAT-MTI-II fusion protein (SEQ ID NO: 11) expressed in E. coli (protein)
chain: MAHHHHHHSLVPRGSRRRQRRKKRGLQMSEKSVEAAAELSAKDLKEKKDKVEEKAGRKERKKEVVEEEENGAEEEEEETAEDGEDDDEGDEEDEEEEEEEDEGPVRKRTAEEEDEADPKRQKTENGASA
modifications: HisTag-TAT-MTI-II
transcriptional activity of NFκB [2]: inhibited depending on the amount of TAT-MTI-II | anti-inflammatory action (blood sedimentation rate, pathological specimens of knee joints) [3]: anti-inflammatory effect

B2: MTI-II: 102 amino acid polypeptide (SEQ ID NO: 2), same sequence as parathymosin; encoded by SEQ ID NO: 1 (protein, listed as Homo sapiens)
chain: MSEKSVEAAAELSAKDLKEKKDKVEEKAGRKERKKEVVEEEENGAEEEEEETAEDGEDDDEGDEEDEEEEEEEDEGPVRKRTAEEEDEADPKRQKTENGASA
transcriptional activity of NFκB compared with the case where MTI-II was not expressed ([4]; MTI-II expressed together with p300, TNFα (pTri-MTI 1.0 μg)): inhibited to about half or more | transcriptional activity of NFκB compared with the case where MTI-II was not expressed ([4]; MTI-II expressed together with p300, TNFα, steroid agent further added): inhibited to about half or more | transcriptional activity of NFκB compared with the absence of the coactivator ([4]; MTI-II with p300, TNFα, used together with the steroid agent): inhibited to about half | swelling of the liver, kidney, spleen, small intestine, large intestine, thymus and blood vessels ([5]; autopsy at 24 hours, naked eye): not observed | behavioral anomaly ([5]; observed for 24 hours): not observed | transcriptional activity of NFκB ([1]; TNFα 1 ng/ml, MTI-II expressed (0-3.0 μg vector)): inhibited depending on the amount of MTI-II | NFκB transcriptional activity ([1]; TNFα, simultaneous use of MTI-II and the steroid agent (TA 120 nM)): inhibited further more
